This test deals with T1, M1-linked di-ubiquitin (UniProt P0CG48 1-76; P0CG48 1-76).
T1 construct: ubiquitin, distal (N-terminal) moiety, M1-G76, its G76 joined by a peptide bond to M1 of the next moiety; ubiquitin, proximal (C-terminal) moiety, M1-G76, with the free C-terminal carboxylate; Two ubiquitin units head to tail on one chain; also called linear di-Ub; linear (head-to-tail) di-Ub
Put plainly: ITC; 298 K, MicroCal iTC200; linear di-Ub (1 mM) in the syringe, HOIL-1L NZF (100 uM) in the cell (several experiments at half of these); 20 mM HEPES pH 7.0, 50 mM sodium chloride, 1 mM TCEP; one set of sites model; three independent experiments. The settings on record: both partners purified.

B1: mouse HOIL-1L NZF domain (residues Pro192-Gln250) T207D (domain or fragment)
chain: GPLGSPEPVGWQCPGCTFINKPDRPGCEMCCRARPETYQIPASYQPDEEERARLAGEEEALRQYQQ
notes: HOIL-1L, mouse, NZF domain with tail, residues Pro192-Gln250, point mutant T207D; Point mutation made by PCR on the plasmid of m1; also called phosphomimetic HOIL-1L NZF; T207D HOIL-1L NZF; source: E. coli, autoinduction in N-5052 media, purified; not shown: GST, N-terminal, cleaved
For orientation: Kd means the free concentration of one partner at which half of the binding sites on the other are occupied at equilibrium, for simple one-to-one binding. B1 gave a Kd of 10.3 µM.
